Data reported in patent US20150351390A1, “COMPOSITIONS AND METHODS FOR AUXIN-ANALOG CONJUGATION” (PIONEER HI-BRED INTERNATIONAL, INC., priority 2012, published 2015).

Experiments:
[1] = LC-MS assay of GH3 conjugation of 2,4-D with Asp or Glu; assay type: biochemical; details: for kcat (hrs−1) 2,4-D-Asp: conjugation of 2,4-D with Asp by recombinant GH3 protein, 2,4-D-Asp product by LC-MS; for kcat (hrs−1) 2,4-D-Asp / kcat (hrs−1) 2,4-D-Glu: 5 mM 2,4-D substrate; for kcat (hrs−1) 2,4-D-Glu: conjugation of 2,4-D with Glu by recombinant GH3 protein, 2,4-D-Glu product by LC-MS; for 2,4-D conjugation activity with Asp or Glu: result in words
Protocol: (§1) To detect and monitor the formation of acyl conjugates with 2,4-D or dicamba, a sensitive LC-MS method was developed using the respective amino acid conjugate standards. […] The reaction was performed at 30° C., 105 rpm, for 3 hours in buffer containing 20 mM Tris-HCl (pH 8.0), 5 mM MgCl2, 5 mM auxin (IAA, 2,4-D or dicamba), 5 mM ATP, 5 mM Asp or Glu, 1 mM DTT and 44 to 164 μg/mL purified GH3 protein in 100 μL reaction. After 3 hours of reaction, 400 μL 100% MeOH was added to the reaction mixture for protein precipitation. The supernatant was diluted 20× in water and then analyzed by LC-MS (AB Sciex 4000 QTrap coupled with Shimadzu Nexera UHPLC) using a Phenomenex Luna 3 μm Phenyl-Hexyl (00B-4256-Y0) column. The concentration of the conjugates was calculated based on the standards. Kinetic parameters were estimated by fitting initial velocity values to the Michaelis-Menten equation.
(§2) The GH3 superfamily conjugase activity analysis of IAA, 2,4-D or dicamba with Asp or Glu was done using LC-MS to analyze the final conjugate products as described in Example 1. Protein sequences of GH3 homologs (Table 3) were obtained from public databases (NCBI, http://www.ncbi.nlm.nih.gov/) by Blast analysis of AtGH3.17 protein sequence (accession # Q9FZ87). Coding sequences were designed for optimal expression in E. coli based on the protein sequences and synthesized. Synthesized coding sequences along with N-term his-tag coding sequences were cloned into a pET24a-based E. coli expression vector. The E. coli expression vectors were transformed into OverExpress C41(DE3) cells (Lucigen) for protein expression. Recombinant E. coli strains were inoculated into 5 ml LB media supplemented with 40 mg/L kanamycin and cultured overnight at 37° C. The overnight culture (0.5 mL) was inoculated into 50 mL LB medium plus 40 mg/L kanamycin and grown at 30° C. until OD600 reached 0.6. The cultures were induced with 0.2 mM IPTG at 16° C., 230 rpm overnight. Cells were harvested by centrifugation at 7,000 rpm for 10 mins. The cell pellet from 50 mL of cell culture was frozen and thawed twice and then lysed in 800 μL lysis buffer A (150 mM NaCl, 50 mM Tris-HCl pH 8.0, 5 mM MgCl2, 10% glycerol) plus 20 mM imidazole, 1 mM DTT, 0.2 mg/ml lysozyme, 1/200 protease inhibitor cocktail (EMD set3, EDTA free) and 1/2000 endonuclease. Lysate was then centrifuged at 13,000 rpm for 30 min at 4° C. Supernatant was loaded onto 200 μL Ni-NTA columns pre-equilibrated with buffer A with 20 mM imidazole at 4° C. Each column was then washed with (1) 2×800 μL of buffer A with 10 mM imidazole, (2) 2×800 μL of buffer A with 20 mM imidazole and (3) 2×200 μL of buffer A with 50 mM imidazole. Protein was eluted with 200 μL of buffer A with 250 mM imidazole. The concentration was measured by Bradford assay. Purified protein was used in conjugation reaction assays as described in example 1.

[2] = LC-MS assay of GH3 conjugation of IAA with Asp or Glu; assay type: biochemical; details: for kcat (hrs−1) IAA-Asp: conjugation of IAA with Asp by recombinant GH3 protein, IAA-Asp product by LC-MS; for kcat (hrs−1) IAA-Glu: conjugation of IAA with Glu by recombinant GH3 protein, IAA-Glu product by LC-MS; for IAA conjugation activity with Asp or Glu / Conjugation of Glu to IAA: result in words
Protocol: as §1, §2

Row | Molecule | kcat (hrs−1) 2,4-D-Asp [1] [h⁻¹] | kcat (hrs−1) 2,4-D-Glu [1] [h⁻¹] | 2,4-D conjugation activity with Asp or Glu [1] | kcat (hrs−1) IAA-Asp [2] [h⁻¹] | kcat (hrs−1) IAA-Glu [2] [h⁻¹] | IAA conjugation activity with Asp or Glu [2] | Conjugation of Glu to IAA [2]
1 | PpGH3-1: GH3 protein, accession CAD42870 (protein, listed as Physcomitrella patens) MASEVAKPVENGIHPKLEQSFDAPAATKPSNSELLKLHRDGVPFVMPSKRGIDTTAPDFDPQDFLDLLAEDVMFIQHEKLREILEVQADVEYLRRVGLNGRTDVESFRKCVPIVSYGDLEADIMRVVNGEKTPIFTVDPIVTLNLSSGTTAGKPKFIPSTTRAYEYFMFLQTFVTSIYRREFPGYKDGTSFTLAFAGKQIDTPSGIKAGAQSTNHFRGPMFRNRVRNANREYCVPDEVILSDDTTQSMYCHLLCALAQAPEIVKVYGTFAASIVSAVRALQKHWSEIVEDIRTGTLNAKITEPEMRTAVQQMLHPNPDLASRIEEECSKDNWEGILPRLFPNAHFVSCVISGSMLQYAPALKHFSGHLPTISLAYAACECSFIGFNPSMKCAPEDITYMLWPETAYYEFIPLDEDSNPEQDGDVVRTVEACDLEVGRQYELVVTNVIGLYRYRLGDVLTMKRFHKTAPVFEFVRRKNVILSVHTDKTDEKELQSVVNLATEALAGTGMELSDYTSTADVSTLPGRYVIFWEMVDSSDLDYDVLQHCANTLDANFNSDYRRWRSGHQIGPLELRIVKEGTFNRVMDSAVARGASPSQYKPPRCVNNPHTRQILDDGLVASFHSTITPNPAPIALTGS | 0.078 | 0.122 | 2,4-D conjugases | 0.000 | 0.000 | IAA-inactive | 
2 | ZmACF88044: GH3 protein, accession ACF88044 (protein, Zea mays) MATYEDLQPYIRRIADGDRSPILSGHPVSEFLTSSGTSAGERKLMPTIEDELNRRQLLYSLQMPVMNLYVPGMDKGKALHFLFVKSETKTPGGLAARPVLTSYYKSNHFKNRPFDAYNNYTSPTAAILCADAFQSMYAQMLCGLCQRQDVLRVGAVFASGLLRAIRFLQLNWEQLAEDIEAGSLTPRVTDPSVREAVAGILRADPELAALVRSECSKGDWAGIITRIWPSTKYLDVIVTGAMAQYIPTLKYYSGGLPMACTMYASSECYFGLNLRPMCDPSEVSYTLMPNMCYFEFLPMDSAAASGGDASQLVDLARVEVGREYELVITTYAGLNRYRVGDVLQVTGFHNSAPQFRFVRRKNVLLSIESDKTDEAELQRAVERASALLRPHGAAVVEYTSQAYTKSIPGHYVIYWELLAKGPAGGAAVGEGTLERCCLEMEEALNTVYRQSRVADGSIGPLEIRVVRPGTFEELMDYAISRGASINQYKVPRCVTFPPIIELLDSRVVSSHFSPALPHWTPGQRSDSD | 0.000 | 0.033 | 2,4-D conjugases | 0.000 | 0.000 | IAA-inactive | 
3 | AtGH3-12: GH3 protein, accession Q9LYU4 (protein, listed as Arabidopsis thaliana) MKPIFDINETFEKQLKDLTSNVKSIQDNLLEEIITPNTKTEYLQRFLIDRFDKELFKKNVPIVSYEDIKPYLDRVVNGESSDVISARTITGFLLSSGTSGGAQKMMPWNNKYLDNLTFIYDLRMQVITKHVKGVEEGKGMMFLFTKQESMTPSGLPARVATSSYFKSDYFKNRPSNWYYSYTSPDEVILCPNNTESLYCHLLCGLVQRDEVVRTGSIFASVMVRAIEVLKNSWEELCSNIRSGHLSNWVTDLGCQNSVSLVLGGPRPELADTIEEICNQNSWKGIVKRLWPNTKYIETVVTGSMGQYVPMLNYYCNDLPLVSTTYGSSETTFGINLDPLCKPEDVSYTFMPNMSYFEFIPMDGGDKNDVVDLEDVKLGCTYEPVVTNFAGLYRMRVGDIVLVTGFYNNAPQFKFVRRENVVLSIDSDKTNEEDLFKAVSQAKLVLESSGLDLKDFTSYADTSTFPGHYVVYLEVDTKEGEEKETAQFELDEEALSTCCLVMEESLDNVYKRCRFKDGSIGPLEIRVVRQGTFDSLMDFFISQGASTGQYKTPRCIKSGKALQVLETCVVAKFFSI | 0.002 | 0.026 |  | 0.000 | 10.015 |  | can also conjugate Glu to IAA
4 | AtGH3-7: GH3 protein, accession AAC00604 (protein, listed as Arabidopsis thaliana) MSLTSDLSEKSSDKMKVLEDLTSNVTQIQDNVLEEILTLNANTNYLQKFFLGSFDKESFKKNVPVVTYEDVKPYIERVVNGEPSNVISARPITGFVLSTGTSGGAQKMMPWNEKYLDNLTFMYDLRMHIISNNVKDVEKGKAMMFYFTKLESITPSGLPARVASSSYLKSNYFKNRPSNWYYSYTSPDEVTLCPDNKQNLYCHLLCGLVQRNEVTRMGSIFASVMVRAIKFLEDSWEELCSNIRSGQLSEWITDIGCRDSVSLVLGGPHPEAADTIEQICNQKCWKGIITRLWPKAKYIETIVTGSMVQYVPTLNYYSNNMLPLISTIYASSETQFGLNLNPMCKPEDVSYTFMPNVSYFEFIPVDGDKNDVVDLADVKLGCCYEAVVTNFSGLYRIRVGDILVVTGFHNKAPQFRFIRRDNVVLSIDLDKTNEDDLFKAVNNAKLTLDSSHLMLIDFTSYADISTIPGHYVVYWEVKNKNEDKKSKKHIELKEETFSECCLLMEDSLDSVYKICRFKEESVGPLEIKVVRQGTFDSLMDYFISQGASIGQYKTPRCIKSGKALEVLEENVVATFFST | 0.000 | 0.000 |  | 0.000 | 5.361 |  | can also conjugate Glu to IAA
5 | AtGH3-19: GH3 protein, accession AAG60122 (protein, listed as Arabidopsis thaliana) MSLSVELKDLEVLTTNAKQIQDDVLKEILTLNANTEYLKRFLDGSSDKELFKKNVPVVSYNDVKPYIERVANGEPSDVISGGTITRFVQSTGTSGGIHKIFPVNDKYIENLGYLLAVSSLITSNDKVDEKGKKMAFLYNRLESKTPSGLALSSSFTSYFMSDYFKNRSSKCNSEYTSPDQVILCPDNNQSVYCHLLCGLSQREKVVGVSATFAHALIKAINALQIYWKELSSNIRSGHVSEWITDLDCKNAVSAILGGPDPELADVIEQECSHKSWEGIITRLWPKAKFIECIVTGQMAQYIPTLDFYSNKLPIVSMVYGSSESIFGVNVDPLSKPQDVSYTFLPNISYFEFLPIDHEEDMNTIVDLVGVKLGCYYETVVTSYFGLHRYLIGDILQVTGFYNNTPQFRFVRRKNIVLSVNSEATTEQDILKGLASATLVLESSNSMLTGFTCYADISSFPGHYVFYWELKAKDVDDVVELDENVLEECCYALEESFDALYKRLRSKEGSIGALEIKVVQQGTFDSLMEYFISKGGSVAQYKTPMCINSSETLAVLEDKVIARFYSQKSPPLNL | 0.014 | 0.048 |  | 0.000 | 3.177 |  | can also conjugate Glu to IAA
6 | AIGH3-14: GH3 protein, accession EFH47823 (protein, listed as Arabidopsis lyrata) MLPKFDPTDQKACLSLLEDVTTNVKQIQDSVLEAILSRNARTEYLSGFLNGQVDKQSFKKNLPVVTYEDIRPYIDRIANGEPSDLICDRPISVLLTSSGTSGGVPKLIPLTTDELEQRISFASLYRPLLYKYVEGIRERKSFMLYFVTRESETASGILVRTMITCVLKSLKPSNSFIWDQTQISPHGISTCSDTTQSMYCQLLCGLLQRDNVGRLGAPFASSFLKIIKFLEDHWPEFCSNIRTGRLSDWITDPQCVSGIGKFLTAPDPELASLIEQECSQTSWEAIVKRLWPKAKCIEAIVTGTMAQYIPLLEFYSGGLPVISTFYGSSECFIGLNLNPLSKPSDVSYTIIPCMAYFEFLEVGKDYQETGHDPAEKPVVVDLVDVKIGHDYEPVVTTFAGLYRYRLGDVLRVTGFYNNAPQFHFVGRQKVVLSIDMDKTYEEDLLKAVTNAKLLLEPHDLMLMDFTSRVDSSSFPGHYVLYWELGSKVKDAKLELDPNVLEECCFTIEESLDAVYRKGRKNDKNIGPLEIKVVKSGAFEELMNLFLSRGSSVSQYKTPRSVTNEEAVKILESNVVSEFLSRKTPSWELHELYSNR | 0.140 | 0.322 |  | 0.000 | 1.756 |  | can also conjugate Glu to IAA
